The target of the assay is SARS-CoV-2 BA.1 RBD protein (SARS-CoV-2 Omicron BA.1, strain). Description: SPR. As to conditions: both partners purified.

This is an account of results in PMC10825162 (Nature Communications, 2024).

B1: BA7208 (antibody, V domains shown)
VH: EVQLVQSGAEVKKPGESLKISCKGSGYSFTSYYWIGWVRQMPGKGLEWMGIVYPDDSDTRYSPSFQGQVTISADKSISTAYLQWSSLKASDTAMYYCVRHPGGGDWYFDLWGRGTLVTVSS
VL: DIQMTQSPSTLSASVGDRVTITCRASQSISSWLAWYQQKPGKAPKLLIYKASSLESGVPSRFSGSGSGTEFTLTITSLQPDDFATYYCQQYDSFSWTFGQGTKLEIK
B1 showed a Kd of 1.81 nM.
